Data reported in patent US20230220381.

How the values were obtained:
[1] = target: T1, Thrombin (Homo sapiens) (UniProt P00734+P00734); experiment: FP
[2] = target: T1, Thrombin (Homo sapiens); experiment: MST; conditions: Phe at library positions 5 and 3, C12 at position 4, Nap at position 1 (3' end) (unnatural monomers); 2Bind, N=2, 100 nM aptamer, buffer without Triton X; unit given as nmol

How did the Kd ([1]; branched DNA-encoded construct with BU, aptamer branch GGTTGGC12GTGGAlkTGGTTTTT (C12 and Alk unnatural phosphodiester monomers), same buffer as TBA1F) turn out when “CGTCGAGGCCCGTGCTTACCCGTGACCTTCTTAGGAGGTTGGNGTGGNTGGTTTTTACACGTCACGCCTTTTTTTTT [TBA2F]” was run?
Its Kd is 89 nM.

Which results are given for GGGTGGPHECTGGPHETGGNAP [Aptamer3]?
Kd ([1]; Phe at library positions 5 and 3, C12 at position 4, Nap at position 1 (3' end) (unnatural monomers), fluorescence anisotropy with 0.1 mg/mL sheared salmon sperm DNA, N=3, unit given as nmol): 5 nM; Kd ([1]; Phe at library positions 5 and 3, C12 at position 4, Nap at position 1 (3' end) (unnatural monomers), fluorescence anisotropy, thrombin binding buffer, unit given as nmol): 6 nM; Kd [2]: 20 nM

What does the source list for GGTPTGGPHECTGGTTGGG [Aptamer2]?
Kd ([1]; Trp at library position 7, Phe at position 5, C12 at position 4 (unnatural monomers), fluorescence anisotropy, unit given as nmol): 10 nM; Kd ([1]; Trp at library position 7, Phe at position 5, C12 at position 4 (unnatural monomers), with 0.1 mg/mL salmon sperm DNA, N=3, unit given as nmol): 10 nM

How did the Kd ([1]; Phe unnatural monomer at library position 5, fluorescence anisotropy, unit given as nmol) turn out when GGTTGGPHEGTGGTTGGT [Aptamer1] was run?
Its Kd is 26 nM.

For “GGTTGGTGTGGTTGGNAP [Aptamer4 of Table 9 (Nap at position 1; Aptamer5 in FIG. 12)]”, which Kd ([1]; Nap unnatural monomer at library position 1 (3' end), unit given as nmol, Aptamer4/5 naming swapped in FIG. 12, Table 9 sequence used) is on record?
Its Kd is 24 nM.
